{
  "source": "patent US8680241B2",
  "about": "(priority 2009, dated 2014)",
  "key": {"[1]": {"test_system": "Lewis rats with adjuvant-induced arthritis", "settings": "rat, in vivo"}, "[2]": {"test_system": "Balb/C mice with TNBS colitis", "assay_type": "in vivo, mouse", "settings": "for TNBS-induced weight loss: Example 15, 8 mg/kg after sensitization and on day 1, day 3, PBS treated animals 15%, FIG. 24", "experimental": "Balb/C mice were sensitized with 160 μL of the haptenizing agent TNBS (Sigma-Aldrich, St. Louis, Mo.) at a concentration of 2.5% in 50% ethanol by skin painting. A week later, 120 μl of 1% TNBS in 50% ethanol was administered intrarectally via a 3.5-French catheter. Mice were sacrificed 3 days after intrarectal TNBS administration. Animals were weighed at the time of sensitization, intrarectal administration and every day following such until sacrifice. Clinical assessment was carried out by evaluating weight loss and histopathology of the colon tissue post mortem.\nTissues were fixed in phosphate buffered saline containing 4% formalin and embedded in paraffin. Sections (5 μm) were stained with haematoxylin and eosin. The degree of inflammation was assessed by a blinded pathologist using the following scoring system from 0-4: 0, no signs of inflammation; 1, low level of leucocyte infiltration; 2, moderate level of leucocyte infiltration; 3, high level of leucocyte infiltration, high vascular density, thickening of bowel wall; 4, transmural infiltrations, loss of goblet cells, high vascular density, strong bowel wall thickening, edema.\nTwenty Balb/C mice were sensitized via TNBS skin-painting (designated day −7), followed by intrarectal administration of TNBS a week later (designated day 0). The humanized VH2/VK3 antibody (200 μg) was administered at three time points (−6, −2, +1) via i.p. injection to treated animals which were compared with untreated control animals. All the animals were weighed at the time of sensitization, intrarectal administration and every day following such. The animals were sacrificed three days following intrarectal administration (designated +3) following significant weight loss (>5%) in the control group and the colon tissue was removed and sent for histopathological analysis.\nBalb/C mice were sensitized via TNBS skin-painting (Day −7), followed by intrarectal administration of TNBS a week later (designated as day 0). The VH2/VK3 variant (8 mg/kg), Rituximab (8 mg/kg) or PBS, were administered following sensitization and on day 1 following intrarectal induction. The mice were weighed at the time of sensitization, intrarectal administration and every day following such. The animals were sacrificed 3 days following intrarectal administration (Day 3) following significant weight loss in the control groups."}, "[3]": {"target": "T1, adenylyl cyclase-associated protein 1 (CAP1) (Homo sapiens, UniProt Q01518)", "T1 construct": "made in house; host or cells: E. coli BL21 (modified pET22b vector; cDNA from THP-1 cells)", "T1 sequence (Q01518 whole entry)": "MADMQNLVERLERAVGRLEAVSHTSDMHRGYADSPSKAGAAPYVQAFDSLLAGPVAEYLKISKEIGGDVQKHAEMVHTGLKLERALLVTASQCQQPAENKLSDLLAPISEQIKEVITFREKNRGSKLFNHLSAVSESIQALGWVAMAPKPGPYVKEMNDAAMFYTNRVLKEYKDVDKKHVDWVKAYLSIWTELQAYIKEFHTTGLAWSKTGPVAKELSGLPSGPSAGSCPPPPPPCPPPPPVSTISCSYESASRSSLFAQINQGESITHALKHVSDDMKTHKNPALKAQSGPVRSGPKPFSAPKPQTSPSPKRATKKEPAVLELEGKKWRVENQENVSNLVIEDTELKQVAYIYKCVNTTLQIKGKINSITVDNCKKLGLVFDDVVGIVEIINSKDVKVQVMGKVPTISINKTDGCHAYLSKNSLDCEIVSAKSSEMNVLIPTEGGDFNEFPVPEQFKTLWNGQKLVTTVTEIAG", "test": "Western blot on over-expressed His-tagged CAP1", "assay_type": "binding", "settings": "control His CREB; FIG. 13"}, "[4]": {"test_system": "DBA/1 mice with collagen-induced arthritis", "assay_type": "in vivo, mouse", "settings": "single dose i.p. 200 μg upon clinical signs; vs TBS; FIG. 20", "experimental": "Nine week old male DBA/1 mice (Harlan Laboratories, Israel) were injected s.c. at the base of the tail with 200 μg collagen type II emulsified in CFA (Difco). Three weeks later mice were boosted s.c. with the same concentration of collagen II. The severity of arthritis was assessed daily by measuring feet diameter of hind and fore paws by caliper by a blinded observer. As controls, the inventors measured 4 mice of about the same age that were not injected with collagen. The mean of the healthy mice served as a “cut-off” measurement. Starting from day 5 after the boost injection, every mouse with a score value above the average of the healthy mice (in one paw or more) was assigned to one of the treatment groups.\nThe inventors next examined the in vivo effects of the humanized VH2/VK3 anti-peptide-6 antibody in an additional experimental model of arthritis, the Collagen-Induced Arthritis (CIA) model in mice. Male DBA/1 mice were immunized on day 0 with collagen type II emulsified in CFA to induce arthritis, and a boost dose given on day 21.85% of the mice developed CIA within 2.5 weeks after the boost injection. Upon clinical signs of disease, the mice were treated with a single dose of either the humanized VH2/VK3 anti-peptide-6 antibody (i.p. 200 μg) or tris buffered saline (TBS)."}, "[5]": {"settings": "11-day period, FIG. 25"}, "[6]": {"test_system": "Lewis rats with adjuvant-induced arthritis", "assay_type": "in vivo, rat", "settings": "IP 1 mg/kg days 11 and 15, serum day 19, FIG. 19", "experimental": "Evaluation of cytokine levels in cell culture or in the serum of animals was carried out utilizing specific kits from R&D SYSTEMS, Minneapolis Minn. USA (according to the manufacturer's instructions).\nThe inventors furthermore evaluated the in vivo effects of the humanized anti-peptide-6 antibody on the induction of IL-10 secretion in the serum of animals having established arthritis. Lewis rats were immunized with MT/CFA on day 0. Rats were treated on days 11 and 15 with humanized VH2/VK3 (IP 1 mg/kg), or with PBS for comparison. Severity of arthritis was evaluated by clinical scoring, and animals were sacrificed on day 19 and serum levels of various cytokines were measured by ELISA (R&D systems). Serum of healthy untreated animals served as a control."}, "[7]": {"test_system": "Balb/C mice", "settings": "mouse, in vivo"}, "[8]": {"test_system": "human macrophages (CD14+ cells)", "assay_type": "cell-based", "settings": "FITC conjugated, 10 μg; double stained with anti-CD14; FIGS. 12, 16"}, "[9]": {"test_system": "human PBMC", "assay_type": "cell-based"}, "[10]": {"test_system": "PBMC collected from rheumatoid arthritis (RA) patients", "assay_type": "cell-based, human", "settings": "200 μg, 48 hours, two RA patients, vs without antibody; FIG. 21", "experimental": "PBMC were collected from two RA patients and incubated for 48 hours with or without 200 μg of the humanized anti-peptide-6 antibody (VH2/VK3). Supernatants were then assayed for secreted IL-10 content."}},
  "note": "Entries after “also recorded” stand apart in the source; their conditions may differ. Read-outs that look alike come from different tables or passages of the source.",
  "data": [
    {"molecule": "Rituximab", "values": [
      {"measurement": "pathology findings of joints", "setting": "[1]", "value": "marked fibrosis and formation of reactive periosteal bone"},
      {"measurement": "severity of AA (arthritis score)", "setting": "[1]; ip, 5 mg/kg", "value": "no effect on AA"},
      {"measurement": "TNBS-induced weight loss", "setting": "[2]", "value": 14, "unit": "%"}
    ]},
    {"molecule": "VH2/VK3: humanized anti-peptide-6 IgG1; heavy chain variable region SEQ ID NO: 21, light chain variable region SEQ ID NO: 26 (antibody, V domains shown, IgG1 constant regions; VH2 amino acid sequence; VK3 amino acid sequence) VH: QVTLKESGPALVKPTQTLTLTCSFSGFSLSTSNMGVGWIRQPAGKGLEWLLHILWNDSKYYNPALKSRLTISKDTYKNQVVLTMTNMDPVDTATYYCARMGGYYGNYGYYAMDYWGQGTLVTVSS VL: QIVLTQSPATLSLSPGERATLSCTASSSVSSSYLHWYQQKPGKAPKLWIYSTSNLASGVPSRFSGSGSGTDYTLTISSLQPEDFATYYCHQYHRSPPTFGQGTKLEIK", "values": [
      {"measurement": "recognition of His-tagged CAP1 (Western blot)", "setting": "[3]", "value": "recognized the His-tagged CAP1 protein specifically"},
      {"measurement": "severity of established CIA (feet diameter)", "setting": "[4]", "value": "effective in significantly suppressing the severity of established CIA"},
      {"measurement": "severity of established AA (arthritis score)", "setting": "[1]; ip, 2.5 mg/kg", "value": "effective in significantly suppressing the severity of established AA"},
      {"measurement": "serum half-life", "setting": "[5]; 500 μg i.p. on day 0", "value": "approximately 10 days"},
      {"measurement": "serum half-life", "setting": "[5]; 500 μg s.c. on day 0", "value": "approximately 10 days"},
      {"measurement": "inflammatory response in the colon (microscopic disease score, histology)", "setting": "[2]; Example 14, 200 μg i.p. at days -6, -2, +1, sacrifice day 3, p<0.05 vs control, FIG. 23", "value": "Minimal inflammatory response"},
      {"measurement": "weight loss in TNBS colitis", "setting": "[2]; Example 14, 200 μg i.p. at days -6, -2, +1, vs untreated control, FIG. 22", "value": "effective in suppressing the weight loss"},
      {"measurement": "TNBS-induced weight loss", "setting": "[2]", "value": 3.5, "unit": "%"},
      {"measurement": "serum IL-1 levels", "setting": "[6]; 1 rat per group", "value": "remain negligible in all groups"},
      {"measurement": "serum IL-17 levels", "setting": "[6]; 1 rat per group", "value": "remain negligible in all groups"},
      {"measurement": "serum TNFα levels", "setting": "[6]; 1 rat per group", "value": "remain negligible in all groups"},
      {"measurement": "serum IL-4 levels", "setting": "[6]", "value": "remain negligible in all groups"},
      {"measurement": "serum IFN-γ levels", "setting": "[6]; vs PBS", "value": "reduction"},
      {"measurement": "serum IL-6 levels", "setting": "[6]; vs PBS", "value": "reduction"},
      {"measurement": "serum IL-10 levels", "setting": "[6]; vs PBS", "value": "clear induction of IL-10 levels"},
      {"measurement": "pathological findings (heart, liver, lung, spleen, kidney)", "setting": "[7]", "value": "no significant pathological findings"},
      {"measurement": "binding to CD14 positive cells (FACS)", "setting": "[8]", "value": "binds to most of the CD14 positive cells"},
      {"measurement": "IL-10 induction in PBMC cultures", "setting": "[9]", "value": "best IL-10 induction; also recorded: induced higher IL-10 expression than the other variants"},
      {"measurement": "IL-10 secreted from human PBMC", "setting": "[9]", "value": "significant increase in IL-10 secreted"},
      {"measurement": "IL-10 secreted by RA patients' PBMC", "setting": "[10]", "value": "robust increase in the amount of IL-10 secreted"}
    ]}
  ]
}
